Source: patent publication US20030148958A1 (PROCTER AND GAMBLE, published 2003)
Ends that are not written are not given here.

T1: corticotropin releasing factor 2 receptor
T1 sequence (Q13324 whole entry, species assumed, looked up): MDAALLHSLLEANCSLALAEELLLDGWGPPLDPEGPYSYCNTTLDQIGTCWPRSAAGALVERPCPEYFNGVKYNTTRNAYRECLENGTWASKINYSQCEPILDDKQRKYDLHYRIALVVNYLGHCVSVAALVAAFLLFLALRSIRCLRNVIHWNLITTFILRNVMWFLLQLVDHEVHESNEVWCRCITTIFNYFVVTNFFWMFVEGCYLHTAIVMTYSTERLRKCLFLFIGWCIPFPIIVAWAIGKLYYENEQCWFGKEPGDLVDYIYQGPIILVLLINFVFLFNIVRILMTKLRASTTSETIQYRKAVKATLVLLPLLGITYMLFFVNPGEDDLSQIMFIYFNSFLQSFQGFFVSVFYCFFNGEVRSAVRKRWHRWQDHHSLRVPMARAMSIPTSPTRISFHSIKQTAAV

T2: CRF2R
T2 sequence (Q13324 whole entry, species assumed, looked up): T1 sequence (Q13324 whole entry, species assumed, looked up)


The binders below were run against T1, corticotropin releasing factor 2 … (assay: cell-based or functional assay).
Throughout, for CRF1R Emax %: reference of the scale not given here.
Throughout, for CRF1R Emax: reference of the scale not given here.
Throughout, for CRF2R Emax %: reference of the scale not given here.
Throughout, for CRF2R Emax: reference of the scale not given here.

Row | Binder | CRF2R EC50 [nM] | CRF2R Emax [%]
1 | ZGPPISIDLPYVLLRKMIEIEKQEKEKQQAANNRLLLDTI (C-terminal amide) [SEQ ID NO 201] | 5 | 100
2 | ZGPPISIDLPYILLRKMIEIEKQEKEKQQAANNRLLLDTI (C-terminal amide) [SEQ ID NO 204] | 3.6 | 93
3 | ZGPPISIDLPLILLRKMIEIEKQEKEKQQAANNRLLLDTI (C-terminal amide) [SEQ ID NO 194] | 5 | 96
4 | ZGPPISIDLPQLLLRKMIEIEKQEKEKQQAANNRLLLDTI (C-terminal amide) [SEQ ID NO 196] | 27.7 | 97
5 | ZGPPISIDLPYQLLRKMIEIEKQEKEKQQAANNRLLLDTI (C-terminal amide) [SEQ ID NO 202] | 8.7 | 99
6 | ZGPPISIDLPITLLRKMIEIEKQEKEKQQAANNRLLLDTI (C-terminal amide) [SEQ ID NO 24] | 43.1 | 100
7 | ZGPPISIDLPYTLLRKMIEIEKQEKEKQQAANNRLLLDTI (C-terminal amide) [SEQ ID NO 200] | 8.8 | 100
8 | ZGPPISIDLPYLLLRKMIEIEKQEKEKQQAANNRLLLDTI (C-terminal amide) [SEQ ID NO 203] | 5.2 | 94
9 | ZGPPISIDLPQILLRKMIEIEKQEKEKQQAANNRLLLDTI (C-terminal amide) [SEQ ID NO 199] | 8.5 | 92
10 | ZGPPISIDLPAHLLRKMIEIEKQEKEKQQAANNRLLLDTI (C-terminal amide) [SEQ ID NO 206] | 30.5 | 97
11 | ZGPPISIDLPLFLLRKMIEIEKQEKEKQQAANNRLLLDTI (C-terminal amide) [SEQ ID NO 195] | 18.8 | –
12 | ZGPPISIDLPLVLLRKMIEIEKQEKEKQQAANNRLLLDTI (C-terminal amide) [SEQ ID NO 193] | 10.1 | 97
13 | ZGPPISIDLPHHLLRKMIEIEKQEKEKQQAANNRLLLDTI (C-terminal amide) [SEQ ID NO 205] | 25 | 93
14 | ZGPPISIDLPFQLLRKMIEIEKQEKEKQQATTNARLLDTV (C-terminal amide) [SEQ ID NO 20] | 7.81 | 99
15 | ZGPPISIDLPFQLLRKMIEIEKQEKEKQQATTNARLLDRV (C-terminal amide) [SEQ ID NO 22] | 8.33 | 100
16 | ZGPPISIDLPFQLLRKMIEIEKQEKEKQQATTNARLLATV (C-terminal amide) [SEQ ID NO 21] | 8.46 | 96
17 | ZGPPISIDLPFQLLRKMIEIEKQEKEKQQATTNARLLARV (C-terminal amide) [SEQ ID NO 23] | 10.2 | 100

Second part, the binder after the results:

Row | CRF2R EC50 [nM] | CRF2R Emax [%] | Binder
18 | 59.5 | 100 | ZGPPISIDLPAQLLRKMIEIEKQEKEKQQAANNRLLLDTI (C-terminal amide) [SEQ ID NO 211]
19 | 10.2 | 97 | ZGPPISIDLPWQLLRKMIEIEKQEKEKQQAANNRLLLDTI (C-terminal amide) [SEQ ID NO 210]
20 | 7.4 | 93 | ZGPPISIDLPWHLLRKMIEIEKQEKEKQQAANNRLLLDTI (C-terminal amide) [SEQ ID NO 209]
21 | 61.4 | 96 | ZGPPISIDLPQHLLRKMIEIEKQEKEKQQAANNRLLLDTI (C-terminal amide) [SEQ ID NO 207]
22 | 5.6 | 88 | ZGPPISIDLPYHLLRKMIEIEKQEKEKQQAANNRLLLDTI (C-terminal amide) [SEQ ID NO 208]

What follows are binders tested against corticotropin releasing factor 1 receptor (assay: cell-based or functional assay).

Row | Binder | CRF1R EC50 [nM] | CRF1R Emax [%]
23 | ZGPPISIDLPYVLLRKMIEIEKQEKEKQQAANNRLLLDTI (C-terminal amide) [SEQ ID NO 201] | 99.6 | 80
24 | ZGPPISIDLPYILLRKMIEIEKQEKEKQQAANNRLLLDTI (C-terminal amide) [SEQ ID NO 204] | 32.1 | 74
25 | ZGPPISIDLPLILLRKMIEIEKQEKEKQQAANNRLLLDTI (C-terminal amide) [SEQ ID NO 194] | 106 | 94
26 | ZGPPISIDLPQLLLRKMIEIEKQEKEKQQAANNRLLLDTI (C-terminal amide) [SEQ ID NO 196] | 447 | 96
27 | ZGPPISIDLPYQLLRKMIEIEKQEKEKQQAANNRLLLDTI (C-terminal amide) [SEQ ID NO 202] | 404 | 100
28 | ZGPPISIDLPITLLRKMIEIEKQEKEKQQAANNRLLLDTI (C-terminal amide) [SEQ ID NO 24] | > 1000 | 18
29 | ZGPPISIDLPYTLLRKMIEIEKQEKEKQQAANNRLLLDTI (C-terminal amide) [SEQ ID NO 200] | 188 | 99
30 | ZGPPISIDLPYLLLRKMIEIEKQEKEKQQAANNRLLLDTI (C-terminal amide) [SEQ ID NO 203] | 76.2 | 86
31 | ZGPPISIDLPQILLRKMIEIEKQEKEKQQAANNRLLLDTI (C-terminal amide) [SEQ ID NO 199] | 706 | 93
32 | ZGPPISIDLPAHLLRKMIEIEKQEKEKQQAANNRLLLDTI (C-terminal amide) [SEQ ID NO 206] | 696 | 97
33 | ZGPPISIDLPLFLLRKMIEIEKQEKEKQQAANNRLLLDTI (C-terminal amide) [SEQ ID NO 195] | 103 | 93
34 | ZGPPISIDLPLVLLRKMIEIEKQEKEKQQAANNRLLLDTI (C-terminal amide) [SEQ ID NO 193] | 266 | 95
35 | ZGPPISIDLPHHLLRKMIEIEKQEKEKQQAANNRLLLDTI (C-terminal amide) [SEQ ID NO 205] | 126 | 88
36 | ZGPPISIDLPFQLLRKMIEIEKQEKEKQQATTNARLLDTV (C-terminal amide) [SEQ ID NO 20] | 906 | 60
37 | ZGPPISIDLPFQLLRKMIEIEKQEKEKQQATTNARLLDRV (C-terminal amide) [SEQ ID NO 22] | 1000 | 64
38 | ZGPPISIDLPFQLLRKMIEIEKQEKEKQQATTNARLLATV (C-terminal amide) [SEQ ID NO 21] | 908 | 88
39 | ZGPPISIDLPFQLLRKMIEIEKQEKEKQQATTNARLLARV (C-terminal amide) [SEQ ID NO 23] | 1000 | 82

More lines, now with the values ahead:

Row | CRF1R EC50 [nM] | CRF1R Emax [%] | Binder
40 | 826 | 37 | ZGPPISIDLPAQLLRKMIEIEKQEKEKQQAANNRLLLDTI (C-terminal amide) [SEQ ID NO 211]
41 | 43.5 | 90 | ZGPPISIDLPWQLLRKMIEIEKQEKEKQQAANNRLLLDTI (C-terminal amide) [SEQ ID NO 210]
42 | 26.4 | 80 | ZGPPISIDLPWHLLRKMIEIEKQEKEKQQAANNRLLLDTI (C-terminal amide) [SEQ ID NO 209]
43 | 466 | 88 | ZGPPISIDLPQHLLRKMIEIEKQEKEKQQAANNRLLLDTI (C-terminal amide) [SEQ ID NO 207]
44 | 64.9 | 81 | ZGPPISIDLPYHLLRKMIEIEKQEKEKQQAANNRLLLDTI (C-terminal amide) [SEQ ID NO 208]

What follows are binders tested against T2, CRF2R (assay: cell-based or functional assay).

Row | CRF2R EC50 [nM] | CRF2R Emax % [%] | Binder
45 | 100 | 49.3 | NDDPPISIDLPFQLLRNMIEMARIENEREQAGLNAKYLAEV-NH2 [SEQ ID NO 258]
46 | 100 | 72.6 | NDDPPISIDLPLFLLRNMIEMARIENEREQAGLNAKYLAEV-NH2 [SEQ ID NO 257]
47 | 100 | 92.2 | NDDPPISIDLPFHLLRNMIEMARIENEREQAGLNAKYLAEV-NH2 [SEQ ID NO 262]
48 | 12.6 | 100 | ZGPPISIDVPFQLLRKMIEIEKQEKEKQQAANNRLLLDTI (C-terminal amide) [SEQ ID NO 256]
49 | 100 | 19.4 | NDDPPISIDLPTYLLRNMIEMARIENEREQAGLNAKYLAEV-NH2 [SEQ ID NO 266]
50 | 100 | 66.3 | NDDPPISIDLPFFLLRNMIEMARIENEREQAGLNAKYLAEV-NH2 [SEQ ID NO 264]
51 | 100 | 23.4 | NDDPPISIDLPQYLLRNMIEMARIENEREQAGLNAKYLAEV-NH2 [SEQ ID NO 265]
52 | 100 | 95.3 | NDDPPISIDLPFYLLRNMIEMARIENEREQAGLNAKYLAEV-NH2 [SEQ ID NO 261]
53 | 100 | 89.3 | NDDPPISIDLPFLLLRNMIEMARIENEREQAGLNAKYLAEV-NH2 [SEQ ID NO 260]
54 | 100 | 77.3 | NDDPPISIDLPLILLRNMIEMARIENEREQAGLNAKYLAEV-NH2 [SEQ ID NO 269]
55 | 100 | 59 | NDDPPISIDLPLLLLRNMIEMARIENEREQAGLNAKYLAEV-NH2 [SEQ ID NO 268]
56 | 100 | 65 | NDDPPISIDLPLHLLRNMIEMARIENEREQAGLNAKYLAEV-NH2 [SEQ ID NO 259]
57 | 36.2 | 93 | DNPSLSIDLPYYLLRTLLELARTQSQRERAEQNAIIFASV-NH2 [SEQ ID NO 263]
58 | 100 | 19.3 | NDDPPISIDLPLQLLRNMIEMARIENEREQAGLNAKYLAEV-NH2 [SEQ ID NO 270]
59 | 100 | 44.2 | NDDPPISIDLPYYLLRNMIEMARIENEREQAGLNAKYLAEV-NH2 [SEQ ID NO 267]

Each binder was assayed against CRF1R (assay: cell-based or functional assay).

Row | CRF1R EC50 [nM] | CRF1R Emax % [%] | Binder
60 | 1000 | 23.6 | NDDPPISIDLPFQLLRNMIEMARIENEREQAGLNAKYLAEV-NH2 [SEQ ID NO 258]
61 | 744 | 83.5 | NDDPPISIDLPLFLLRNMIEMARIENEREQAGLNAKYLAEV-NH2 [SEQ ID NO 257]
62 | 408 | 100 | NDDPPISIDLPFHLLRNMIEMARIENEREQAGLNAKYLAEV-NH2 [SEQ ID NO 262]
63 | 254 | 100 | ZGPPISIDVPFQLLRKMIEIEKQEKEKQQAANNRLLLDTI (C-terminal amide) [SEQ ID NO 256]
64 | 1000 | 4.45 | NDDPPISIDLPTYLLRNMIEMARIENEREQAGLNAKYLAEV-NH2 [SEQ ID NO 266]
65 | 704 | 100 | NDDPPISIDLPFFLLRNMIEMARIENEREQAGLNAKYLAEV-NH2 [SEQ ID NO 264]
66 | 1000 | 9.3 | NDDPPISIDLPQYLLRNMIEMARIENEREQAGLNAKYLAEV-NH2 [SEQ ID NO 265]
67 | 274 | 100 | NDDPPISIDLPFYLLRNMIEMARIENEREQAGLNAKYLAEV-NH2 [SEQ ID NO 261]
68 | 834 | 89.7 | NDDPPISIDLPFLLLRNMIEMARIENEREQAGLNAKYLAEV-NH2 [SEQ ID NO 260]
69 | 1000 | 44.3 | NDDPPISIDLPLILLRNMIEMARIENEREQAGLNAKYLAEV-NH2 [SEQ ID NO 269]
70 | 1000 | 14.2 | NDDPPISIDLPLLLLRNMIEMARIENEREQAGLNAKYLAEV-NH2 [SEQ ID NO 268]
71 | 820 | 83.6 | NDDPPISIDLPLHLLRNMIEMARIENEREQAGLNAKYLAEV-NH2 [SEQ ID NO 259]
72 | 802 | 72 | DNPSLSIDLPYYLLRTLLELARTQSQRERAEQNAIIFASV-NH2 [SEQ ID NO 263]
73 | 1000 | 7.85 | NDDPPISIDLPLQLLRNMIEMARIENEREQAGLNAKYLAEV-NH2 [SEQ ID NO 270]
74 | 1000 | 22.8 | NDDPPISIDLPYYLLRNMIEMARIENEREQAGLNAKYLAEV-NH2 [SEQ ID NO 267]
